Experiment [1] addresses T1, human TL1A (human, UniProt O95150 72-251).
T1 construct: Antigen in SPR and ELISA; Also used here for places that print only 'TL1A' and for endogenous TL1A in human whole blood; also called TNFSF15
T1 sequence (looked up): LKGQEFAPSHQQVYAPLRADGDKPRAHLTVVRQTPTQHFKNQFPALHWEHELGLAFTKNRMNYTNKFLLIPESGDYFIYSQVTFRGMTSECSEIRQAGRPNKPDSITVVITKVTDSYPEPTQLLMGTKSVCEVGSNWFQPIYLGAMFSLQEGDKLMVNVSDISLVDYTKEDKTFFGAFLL
Description: SPR, Fab format.

The target in experiment [2] is T1, human TL1A. The experiment can be described thus: SPR, Fab format, average. For orientation: In SPR one partner is held on a chip, and binding of the other changes the refractive index at the surface.
Another experiment has as its target T2, Cyno TL1A (cyno, UniProt G7PRK8 72-251).
T2 sequence: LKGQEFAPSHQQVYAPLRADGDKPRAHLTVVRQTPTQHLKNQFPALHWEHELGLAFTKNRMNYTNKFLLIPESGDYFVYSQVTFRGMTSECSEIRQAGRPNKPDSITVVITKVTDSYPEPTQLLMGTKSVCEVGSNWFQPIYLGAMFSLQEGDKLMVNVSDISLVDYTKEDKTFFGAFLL
The experiment can be described thus: SPR, Fab format, average.

Experiment [3] addresses T1, human TL1A. The experiment can be described thus: SPR, Fab lysate, average.

B1: Antibody 51 (Fab format) (Fab, V domains shown)
VH: QVQLQESGPGLVRPSQTLSLTCTVSGFDIQDTYMHWVRQRPGRGLEWMGRIEPAGGHTKYNPSLKSRVTITRDTSKNQVSLRLSSVTAADTAVYYCVRSGGLPDAWGQGSLVTVSS
VL: DIQMTQSPSSLSASVGDRVTITCRASQGVEYMYWYQQKPGKAPKLLIYGASNLASGVPSRFSGSGSGTDFTFTISSLQPEDIATYYCQQWEGNPRTFGQGTKVEIK
notes: Backup lead, Fab format
Take B1: in the experiment with human TL1A [1], the binding result is reported as “binds”.

B2: Antibody 1 (Fab format) (Fab, V domains shown)
VH: QVQLQESGPGLVRPSQTLSLTCTVSGFDIQDTYMHWVRQRPGRGLEWMGRIEPAGGHTKYNPSLKSRVTITRDTSKNQVSLRLSSVTAADTAVYYCASSGGMPDLWGQGSLVTVSS
VL: DIQMTQSPSSLSASVGDRVTITCRASQGVEYMYWYQQKPGKAPKLLIYGASNLASGVPSRFSGSGSGTDFTFTISSLQPEDIATYYCQQWEGNPRTFGQGTKVEIK
notes: High priority lead, Fab format; also called Lead #1
The Kd is a measure of binding affinity in units of concentration. As to B2, the Kd with human TL1A [2], with Cyno TL1A and in the experiment with human TL1A [3] was 0.17 nM throughout.

B3: Antibody 42 (Fab format) (Fab, V domains shown)
VH: QVQLQESGPGLVRPSQTLSLTCTVSGFDITDTYMHWVRQRPGRGLEWMGRIEPAGGHTKYNPSLKSRVTITRDTSKNQVSLRLSSVTAADTAVYYCVRSGGLPDVWGQGSLVTVSS
VL: DIQMTQSPSSLSASVGDRVTITCRASQGVGYMYWYQQKPGKAPKLLIYGASNLASGVPSRFSGSGSGTDFTFTISSLQPEDIATYYCQQWEGNPRTFGQGTKVEIK
notes: Backup lead, Fab format
Take B3: the binding result in the experiment with human TL1A [1] was “binds”.

B4: Antibody 34 (Fab format) (Fab, V domains shown)
VH: QVQLQESGPGLVRPSQTLSLTCTVSGLDPDDTYMHWVRQRPGRGLEWMGRIEPAGGHTKYNPSLKSRVTITRDTSKNQVSLRLSSVTAADTAVYYCVISGGLPDVWGQGSLVTVSS
VL: DIQMTQSPSSLSASVGDRVTITCRASQGIYYMYWYQQKPGKAPKLLIYATSNLASGVPSRFSGSGSGTDFTFTISSLQPEDIATYYCQQWEGNPRTFGQGTKVEIK
notes: Backup lead, Fab format
Consider B4, for which, in the experiment with human TL1A [1], the binding result is reported as “binds”.

B5: Antibody 7 (Fab format) (Fab, V domains shown)
VH: QVQLQESGPGLVRPSQTLSLTCTVSGFDMGDTYMHWVRQRPGRGLEWMGRIEPAAGHTKYNPSLKSRVTITRDTSKNQVSLRLSSVTAADTAVYYCVRSGGLPDIWGQGSLVTVSS
VL: DIQMTQSPSSLSASVGDRVTITCRASQGVEYMYWYQQKPGKAPKLLIYGASNLASGVPSRFSGSGSGTDFTFTISSLQPEDIATYYCQQWEGNPRTFGQGTKVEIK
notes: High priority lead, Fab format
As for B5, the Kd in the experiment with human TL1A [2] amounted to 0.43 nM; with Cyno TL1A it was 1.63 nM; with human TL1A [3] it was 0.43 nM.

B6: Antibody 6 (Fab format) (Fab, V domains shown)
VH: QVQLQESGPGLVRPSQTLSLTCTVSGFDMADTYMHWVRQRPGRGLEWMGRIEPAGGHTKYNPSLKSRVTITRDTSKNQVSLRLSSVTAADTAVYYCVRSGGLPDMWGQGSLVTVSS
VL: DIQMTQSPSSLSASVGDRVTITCRASQGVEYMYWYQQKPGKAPKLLIYSASNLASGVPSRFSGSGSGTDFTFTISSLQPEDIATYYCQQWEGNPRTFGQGTKVEIK
notes: as for B5
Regarding B6, the Kd is 0.41 nM with human TL1A [2], 0.26 nM with Cyno TL1A and 0.41 nM with human TL1A [3].

B7: Antibody 3 (Fab format) (Fab, V domains shown)
VH: QVQLQESGPGLVRPSQTLSLTCTVSGFDIQDTYMHWVRQRPGRGLEWMGRIEPAGGHTKYNPSLKSRVTITRDTSKNQVSLRLSSVTAADTAVYYCVRSGGLPDAWGQGSLVTVSS
VL: DIQMTQSPSSLSASVGDRVTITCRASQGVRYMYWYQQKPGKAPKLLIYGASNLASGVPSRFSGSGSGTDFTFTISSLQPEDIATYYCQQWEGNPRTFGQGTKVEIK
notes: as for B5
Consider B7, for which the results for the Kd with human TL1A [2], with Cyno TL1A and with human TL1A [3] were 0.31 nM, 0.62 nM and 0.31 nM, respectively.

B8: Antibody 53 (Fab format) (Fab, V domains shown)
VH: QVQLQESGPGLVRPSQTLSLTCTVSGFDIQDTYMHWVRQRPGRGLEWMGRIEPASGHTKYNPSLKSRVTITRDTSKNQVSLRLSSVTAADTAVYYCARSGGMMDRWGQGSLVTVSS
VL: DIQMTQSPSSLSASVGDRVTITCRASQGVRYMYWYQQKPGKAPKLLIYGASNLASGVPSRFSGSGSGTDFTFTISSLQPEDIATYYCQQWEGNPRTFGQGTKVEIK
notes: Backup lead, Fab format
For the molecule B8, in the experiment with human TL1A [1], the binding result is “binds”.

B9: Antibody 33 (Fab format) (Fab, V domains shown)
VH: QVQLQESGPGLVRPSQTLSLTCTVSGFDIQDTYMHWVRQRPGRGLEWMGRIEPAGGHTKYNPSLKSRVTITRDTSKNQVSLRLSSVTAADTAVYYCVRSGGLPDAWGQGSLVTVSS
VL: DIQMTQSPSSLSASVGDRVTITCRASQGVEYMYWYQQKPGKAPKLLIYATSNLASGVPSRFSGSGSGTDFTFTISSLQPEDIATYYCQQWEGNPRTFGQGTKVEIK
notes: Backup lead, Fab format
On to B9, for which the binding result with human TL1A [1] is recorded as “binds”.

B10: Antibody 4 (Fab format) (Fab, V domains shown)
VH: QVQLQESGPGLVRPSQTLSLTCTVSGFDMADTYMHWVRQRPGRGLEWMGRIEPAGGHTKYNPSLKSRVTITRDTSKNQVSLRLSSVTAADTAVYYCVRSGGLPDMWGQGSLVTVSS
VL: DIQMTQSPSSLSASVGDRVTITCRASSSVSYMYWYQQKPGKAPKLLIYGASNLASGVPSRFSGSGSGTDFTFTISSLQPEDIATYYCQQWEGNPRTFGQGTKVEIK
notes: as for B5
With B10, the Kd worked out at 0.33 nM with human TL1A [2], 0.16 nM with Cyno TL1A and 0.33 nM with human TL1A [3].

B11: Antibody 30 (Fab format) (Fab, V domains shown)
VH: QVQLQESGPGLVRPSQTLSLTCTVSGFDIQDTYMHWVRQRPGRGLEWMGRIEPAGGHTKYNPSLKSRVTITRDTSKNQVSLRLSSVTAADTAVYYCVRSGGLPDAWGQGSLVTVSS
VL: DIQMTQSPSSLSASVGDRVTITCRASSSVSYMYWYQQKPGKAPKLLIYSASNLASGVPSRFSGSGSGTDFTFTISSLQPEDIATYYCQQWEGNPRTFGQGTKVEIK
notes: Backup lead, Fab format
In the case of B11, in the experiment with human TL1A [1], the binding result is on record as “binds”.

B12: Antibody 39 (Fab format) (Fab, V domains shown)
VH: QVQLQESGPGLVRPSQTLSLTCTVSGFDIQDTYMHWVRQRPGRGLEWMGRIEPAGGHTKYNPSLKSRVTITRDTSKNQVSLRLSSVTAADTAVYYCVRSGGLPDAWGQGSLVTVSS
VL: DIQMTQSPSSLSASVGDRVTITCRASSSVSYMYWYQQKPGKAPKLLIYATSNLASGVPSRFSGSGSGTDFTFTISSLQPEDIATYYCQQWEGNPRTFGQGTKVEIK
notes: Backup lead, Fab format
With B12, the binding result with human TL1A [1] is listed as “binds”.

B13: Antibody 45 (Fab format) (Fab, V domains shown)
VH: QVQLQESGPGLVRPSQTLSLTCTVSGFDIEDTYMHWVRQRPGRGLEWMGRIEPASGHTKYNPSLKSRVTITRDTSKNQVSLRLSSVTAADTAVYYCAISGGVPDVWGQGSLVTVSS
VL: DIQMTQSPSSLSASVGDRVTITCRASSSVSYMYWYQQKPGKAPKLLIYATSNLASGVPSRFSGSGSGTDFTFTISSLQPEDIATYYCQQWEGNPRTFGQGTKVEIK
notes: Backup lead, Fab format
With B13, the binding result with human TL1A [1] is on record as “binds”.

B14: Antibody 41 (Fab format) (Fab, V domains shown)
VH: QVQLQESGPGLVRPSQTLSLTCTVSGFDITDTYMHWVRQRPGRGLEWMGRIEPAGGHTKYNPSLKSRVTITRDTSKNQVSLRLSSVTAADTAVYYCVRSGGLPDVWGQGSLVTVSS
VL: DIQMTQSPSSLSASVGDRVTITCRASSSVSYMYWYQQKPGKAPKLLIYSASNLASGVPSRFSGSGSGTDFTFTISSLQPEDIATYYCQQWEGNPRTFGQGTKVEIK
notes: Backup lead, Fab format
On to B14, for which the binding result in the experiment with human TL1A [1] is “binds”.

B15: Antibody 24 (Fab format) (Fab, V domains shown)
VH: QVQLQESGPGLVRPSQTLSLTCTVSGFDIQDTYMHWVRQRPGRGLEWMGRIEPAGGHTKYNPSLKSRVTITRDTSKNQVSLRLSSVTAADTAVYYCVRSGGLPDAWGQGSLVTVSS
VL: DIQMTQSPSSLSASVGDRVTITCRASQGVGYMYWYQQKPGKAPKLLIYATSNLASGVPSRFSGSGSGTDFTFTISSLQPEDIATYYCQQWEGNPRTFGQGTKVEIK
notes: Backup lead, Fab format
For B15, in the experiment with human TL1A [1], the binding result is on record as “binds”.

B16: Antibody 5 (Fab format) (Fab, V domains shown)
VH: QVQLQESGPGLVRPSQTLSLTCTVSGFDMQDTYMHWVRQRPGRGLEWMGRIEPASGHTKYNPSLKSRVTITRDTSKNQVSLRLSSVTAADTAVYYCVRSGGLPDVWGQGSLVTVSS
VL: DIQMTQSPSSLSASVGDRVTITCRASQGVMYMYWYQQKPGKAPKLLIYGASNLASGVPSRFSGSGSGTDFTFTISSLQPEDIATYYCQQWEGNPRTFGQGTKVEIK
notes: as for B5
As to B16, the Kd with human TL1A [2] turned out to be 0.33 nM; with Cyno TL1A it was 0.79 nM; with human TL1A [3], 0.33 nM.

B17: Antibody 2 (Fab format) (Fab, V domains shown)
VH: QVQLQESGPGLVRPSQTLSLTCTVSGLDPDDTYMHWVRQRPGRGLEWMGRIEPAGGHTKYNPSLKSRVTITRDTSKNQVSLRLSSVTAADTAVYYCVISGGLPDVWGQGSLVTVSS
VL: DIQMTQSPSSLSASVGDRVTITCRASSSVSYMYWYQQKPGKAPKLLIYATSNLASGVPSRFSGSGSGTDFTFTISSLQPEDIATYYCQQWEGNPRTFGQGTKVEIK
notes: as for B5
In the case of B17, the Kd was determined as 0.2 nM with human TL1A [2], 0.94 nM with Cyno TL1A and 0.2 nM in the experiment with human TL1A [3].

B18: Antibody 27 (Fab format) (Fab, V domains shown)
VH: QVQLQESGPGLVRPSQTLSLTCTVSGFDIQDTYMHWVRQRPGRGLEWMGRIEPAGGHTKYNPSLKSRVTITRDTSKNQVSLRLSSVTAADTAVYYCVRSGGLPDAWGQGSLVTVSS
VL: DIQMTQSPSSLSASVGDRVTITCRASQGVRYMYWYQQKPGKAPKLLIYATSNLASGVPSRFSGSGSGTDFTFTISSLQPEDIATYYCQQWEGNPRTFGQGTKVEIK
notes: Backup lead, Fab format
With B18, in the experiment with human TL1A [1], the binding result was “binds”.

The values above are taken from US20250109209A1 (ABSCI, published 2025).
